In patent US20260184804A1 (KEY2BRAIN, published 2026):
Where a chain is given by its changes, count along the chain named. Numbers in names are those of the source.

Key:
[1] = target: T1, His-tagged ectodomain of human transferrin receptor 1 (hTfR1), amino acids R121-F760 (human, UniProt P02786 121-760); assay: SPR (Biacore T200); hTfR1 amine-coupled (~2300 RU), single concentration
T1 construct: Made in CHO cells, purified by IMAC; also called human TfR1; ectodomain of hTfR1
Experimental: (§1) Briefly, hTfR1 was covalently immobilized to the surface of a CM5 chip (Cytiva) by amine coupling using standard reagents. […] Subsequently, all six VHHs were diluted in running buffer (PBS supplemented with 0.05% Tween® 20 (PBS-T)) to 100 nM. A signal equal or higher than the corresponding WT was regarded as “binding similar to WT” (see Table 11).

[2] = target: T1, His-tagged ectodomain of human …; assay: SPR (Biacore T200); hTfR1 amine-coupled (~2300 RU), VHH at 100 nM; column: binding to hTfR1 similar to corresponding WT VHH
Experimental: as §1

[3] = target: T1, His-tagged ectodomain of human …; assay: SPR (Biacore T200); hTfR1 amine-coupled (~1000 RU), VHH at 50 nM; X = binding similar to control
Experimental: (§2) Briefly, hTfR1 was covalently immobilized to the surface of a CM5 chip (Cytiva) by amine coupling using standard reagents. Human TfR1 was diluted to 15 μg/mL in 10 mM sodium acetate pH 5.5 and immobilizing level was aimed to 1000 response units (RUs). Subsequently, all VHHs were diluted in running buffer (PBS supplemented with 0.05% Tween® 20) to 50 nM. […] Similarly, KB_A15 was also only tested fused to a His6 tag.
(§3) KB_A20-KB_A31 were only produced in CHO cells and purified by PrismA™ resin.

[4] = target: T1, His-tagged ectodomain of human …; assay: SPR; hTfR1 pre-complexed with immobilised hTf
[5] = target: T2, His-tagged ectodomain of mouse transferrin receptor 1 (mTfR1), amino acids S122-F763 (mouse, UniProt Q62351 122-763); assay: SPR (Biacore T200); mTfR1 amine-coupled on CM5, KB_A01 as analyte
T2 construct: Made in CHO cells; also called mouse TfR1
T2 sequence (Q62351 other isoform, or with tags, fused parts or gaps limits assumed): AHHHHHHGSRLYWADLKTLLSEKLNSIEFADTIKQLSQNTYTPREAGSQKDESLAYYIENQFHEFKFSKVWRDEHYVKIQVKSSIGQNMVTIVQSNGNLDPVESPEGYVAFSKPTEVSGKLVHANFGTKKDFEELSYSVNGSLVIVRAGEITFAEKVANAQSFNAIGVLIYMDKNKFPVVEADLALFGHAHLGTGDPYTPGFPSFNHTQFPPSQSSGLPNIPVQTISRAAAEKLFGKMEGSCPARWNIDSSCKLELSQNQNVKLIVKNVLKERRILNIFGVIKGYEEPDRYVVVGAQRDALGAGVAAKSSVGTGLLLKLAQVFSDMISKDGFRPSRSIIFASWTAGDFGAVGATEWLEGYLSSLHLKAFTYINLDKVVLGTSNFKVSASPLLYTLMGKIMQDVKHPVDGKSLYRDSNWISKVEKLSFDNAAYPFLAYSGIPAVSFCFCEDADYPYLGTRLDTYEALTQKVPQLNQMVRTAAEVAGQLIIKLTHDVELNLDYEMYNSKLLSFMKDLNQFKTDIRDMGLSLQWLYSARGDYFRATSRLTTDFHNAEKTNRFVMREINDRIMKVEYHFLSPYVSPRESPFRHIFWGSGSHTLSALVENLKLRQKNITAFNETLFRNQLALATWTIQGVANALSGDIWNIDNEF
Experimental: The contact time was 150 s for each concentration at […] with a final dissociation step of 500 s. […] At the end of each single cycle run, the mTfR1 surface was fully regenerated by an injection of 10 mM NaOH for 30 s. After each single cycle kinetic run, blank run was performed and used for baseline correction. The data with respect to the association rate constant (ka), the dissociation rate constant (kd) and the equilibrium dissociation constant (KD) was evaluated using Biacore T200 software evaluation tool applying a Langmuir 1:1 model.

[6] = target: T1, His-tagged ectodomain of human …; assay: SPR (Biacore T200, single-cycle); hTfR1 captured on amine-coupled hTf, binder as analyte 6.25-100 nM
[7] = target: T1, His-tagged ectodomain of human …; assay: SPR (Biacore T200); hTfR1 amine-coupled (~1000 RU), single concentration; - = no apparent binding
Experimental: as §2, §3

[8] = target: T1, His-tagged ectodomain of human …; assay: SPR (Biacore T200); hTfR1 amine-coupled (~1000 RU), VHH at 50 nM; (-) = binding affinity severely decreased
Experimental: as §2, §3

[9] = target: T1, His-tagged ectodomain of human …; assay: SPR (Biacore T200); hTfR1 amine-coupled (~1000 RU), VHH at 50 nM; (X) = binding affinity decreased
Experimental: as §2, §3

[10] = target: T2, His-tagged ectodomain of mouse …; assay: phage ELISA on coated mTfR1 (1 µg/ml)
Experimental: Selected phage samples were diluted 1:10 in block buffer casein ELISA blocker (ThermoFischer Scientific), 20% v/v PEG8000 in 2.5 M NaCl before the ELISA. The targets (hTfR1, cTfR1, mTfR1) were coated at 1 μg/ml in PBS pH 7.4 overnight at 4° C. in 96-well Greiner plates (non-treated), 100 μl. The coating buffer was discarded and replaced by 100 μl block solution. The plate was covered and incubated at RT for 2 h, 900 rpm. Anti-human TfR1 antibody BA3 (MEM189, Sigma, 1 mg/ml) and anti-mTfR1 (81D3, Novus biologicals, 1 mg/ml) were diluted in block buffer to 100 nM starting concentration and diluted 1:2 in series by transferring 100 μl to 100 μl block buffer. Plates were incubated for 1 h at RT, 900 rpm, Wells were washed 3×300 μl in PBST (PBS with 0.1% Tween® 20) using the 50TS microplate washer (Biotek). Anti-M13 antibody (Anti-PVIII GE Healthcare) diluted 1:4000 in block buffer, 100 μl was added to target-coated wells followed by incubation for 1 h at RT, 900 rpm. Washing with PBST was performed. The secondary anti-mouse antibody (Sigma) 1:4000 in block buffer, incubated 1 h at RT, 900 rpm. Washes in PBST was followed by development with TMB substrate. The reaction was stopped with addition of 2 M H₂SO₄ to each well, readings for absorbance at 450 nm was measured using a SpectraMax 3000 (Molecular Devices). […]

[11] = target: T1, His-tagged ectodomain of human …; assay: SPR (Biacore 8K, single-cycle); hTfR1 amine-coupled on CM5, fusion as analyte 0.25-64 nM

T1 sequence (P02786 other isoform, or with tags, fused parts or gaps limits assumed): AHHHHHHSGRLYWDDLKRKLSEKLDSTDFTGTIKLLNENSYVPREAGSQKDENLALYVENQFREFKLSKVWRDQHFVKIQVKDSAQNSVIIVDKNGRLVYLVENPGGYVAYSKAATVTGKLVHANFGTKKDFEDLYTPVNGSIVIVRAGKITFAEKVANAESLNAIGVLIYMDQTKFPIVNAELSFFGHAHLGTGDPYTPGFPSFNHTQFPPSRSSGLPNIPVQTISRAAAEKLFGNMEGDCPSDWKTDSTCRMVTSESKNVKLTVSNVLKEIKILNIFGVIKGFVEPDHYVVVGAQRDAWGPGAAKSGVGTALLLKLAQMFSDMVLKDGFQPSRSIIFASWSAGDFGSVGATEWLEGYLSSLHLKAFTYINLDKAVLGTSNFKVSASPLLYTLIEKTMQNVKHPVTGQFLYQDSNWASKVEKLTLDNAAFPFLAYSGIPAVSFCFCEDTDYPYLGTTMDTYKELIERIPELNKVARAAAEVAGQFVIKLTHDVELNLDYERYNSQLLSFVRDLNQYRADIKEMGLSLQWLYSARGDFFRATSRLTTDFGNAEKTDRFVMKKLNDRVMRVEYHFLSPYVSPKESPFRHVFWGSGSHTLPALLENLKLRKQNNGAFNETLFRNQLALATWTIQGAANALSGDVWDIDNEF

B1: ProA positive control 1 with GGHHHHHH tag (VHH)
VHH: QVQLQESGGGLVQPGGSLRLSCAASGFTFSSYAMSWVRQAPGKGLEWVSAISGSGGSTYYADSVKGRFTISRDNSKNTLYLQMNSLRAEDTAVYYCGTDMEVWGKGTTVTVSSGGHHHHHH
binding result [1]: no binding (tested: 100 nM)

B2: KB_A12 (KB_A01: S19R, N84S) with GGHHHHHH tag (VHH)
VHH: QVQLQESGGGSVQAGGSLRLSCAASGSIFGSKRMGWFRQAPGEQRDVVATITYRGTTEYADSVKGRFTISRDNAKNTVYLQMNSLKPEDTAVYYCWMFTTDNYWGQGTQVTVSSGGHHHHHH
binding result [2]: binds

B3: KB_A15 (KB_A01: S19R, V78I, N84S), His6-tagged (VHH)
VHH: QVQLQESGGGSVQAGGSLRLSCAASGSIFGSKRMGWFRQAPGEQRDVVATITYRGTTEYADSVKGRFTISRDNAKNTIYLQMNSLKPEDTAVYYCWMFTTDNYWGQGTQVTVSS
notes: also called KB3_A15
binding result [3]: binds

B4: KB_A01, monomeric free VHH with C-terminal 6xHis tag and C-tag (VHH)
VHH: B3 VHH with R19S, I78V, S84N
notes: From the periplasm of E. coli
fold lower affinity (KD) than the bivalent BA1 [4]: 206 fold
binding result [5]: no binding (tested: 6.25 to 100 nM)
Kd [6]: 4.1 nM
koff [6]: 0.00414 s⁻¹
kon [6]: 1.01e+06 M⁻¹ s⁻¹

B5: KB_A18 (humanized variant of KB_A01) (VHH)
VHH: B3 VHH with Q1E, Q5V, S11L, A14P, E43K, K86R, Q109L
notes: Free VHH from CHO cells without tag; also run as His6-tagged E. coli form; also called KB3_A18
binding result [3]: binds

B6: KB_A30 (KB_A18 plus W96A) (VHH)
VHH: B3 VHH with Q1E, Q5V, S11L, A14P, E43K, K86R, W96A, Q109L
notes: Free VHH from CHO cells, no tag
binding result [7]: no binding (tested: 50 nM)

B7: KB_A31 (KB_A18 plus M97R) (VHH)
VHH: B3 VHH with Q1E, Q5V, S11L, A14P, E43K, K86R, M97R, Q109L
notes: as for B6
binding result [7]: no binding (tested: 50 nM)

B8: KB_A24 (KB_A18 plus V47W) (VHH)
VHH: B3 VHH with Q1E, Q5V, S11L, A14P, E43K, V47W, K86R, Q109L
notes: as for B6
binding result [8]: binds

B9: KB_A21 (KB_A18 plus Q44G) (VHH)
VHH: B3 VHH with Q1E, Q5V, S11L, A14P, E43K, Q44G, K86R, Q109L
notes: as for B6
binding result [3]: binds

B10: KB_A20 (KB_A18 plus F37V) (VHH)
VHH: B3 VHH with Q1E, Q5V, S11L, A14P, F37V, E43K, K86R, Q109L
notes: Free VHH from CHO cells, no tag, purified on PrismA resin
binding result [7]: no binding (tested: 50 nM)

B11: KB_A22 (KB_A18 plus R45L) (VHH)
VHH: B3 VHH with Q1E, Q5V, S11L, A14P, E43K, R45L, K86R, Q109L
notes: as for B6
binding result [3]: binds

B12: KB_A16 (humanized variant of KB_A01) (VHH)
VHH: B3 VHH with Q1E, Q5V, A14P, E43K, I78V, K86R
notes: Free VHH from CHO cells without tag
binding result [3]: binds

B13: KB_A27 (KB_A18 plus E58Y) (VHH)
VHH: B3 VHH with Q1E, Q5V, S11L, A14P, E43K, E58Y, K86R, Q109L
notes: as for B6
binding result [9]: binds

B14: KB_A01 clone displayed on phage (VHH)
VHH: B3 VHH with R19S, I78V, S84N
binding result [10]: no binding

B15: KB_A17 (humanized variant of KB_A01) (VHH)
VHH: B3 VHH with Q1E, Q5V, S11L, A14P, E43K, I78V, K86R
notes: Free VHH from CHO cells without tag; also run as His6-tagged E. coli form
binding result [3]: binds

B16: KB_A23 (KB_A18 plus D46E) (VHH)
VHH: B3 VHH with Q1E, Q5V, S11L, A14P, E43K, D46E, K86R, Q109L
notes: as for B6
binding result [3]: binds

B17: KB_A26 (KB_A18 plus T50A) (VHH)
VHH: B3 VHH with Q1E, Q5V, S11L, A14P, E43K, T50A, K86R, Q109L
notes: as for B6
binding result [7]: no binding (tested: 50 nM)

B18: KB_A28 (KB_A18 plus A74S) (VHH)
VHH: B3 VHH with Q1E, Q5V, S11L, A14P, E43K, A74S, K86R, Q109L
notes: as for B6
binding result [3]: binds

B19: KB_A25 (KB_A18 plus A49S) (VHH)
VHH: B3 VHH with Q1E, Q5V, S11L, A14P, E43K, A49S, K86R, Q109L
notes: as for B6
binding result [7]: no binding (tested: 50 nM)

B20: scFv-KB_A01 (scFv of 3D6 at the N-terminus of KB_A01) (bispecific antibody)
chain: EVKLVESGGGLVKPGASLKLSCAASGFTFSNYGMSWVRQNSDKRLEWVASIRSGGGRTYYSDNVKGRFTISRENAKNTLYLQMSSLKSEDTALYYCVRYDHYSGSSDYWGQGTTVTVSGGGGSGGGGSGGGGSYVVMTQTPLTLSVTIGQPASISCKSSQSLLDSDGKTYLNWLLQRPGQSPKRLIYLVSKLDSGVPDRFTGSGSGTDFTLKISRIEAEDLGLYYCWQGTHFPRTFGGGTKLEIKGGGGSGGGGSGGGGSQVQLQESGGGSVQAGGSLSLSCAASGSIFGSKRMGWFRQAPGEQRDVVATITYRGTTEYADSVKGRFTISRDNAKNTVYLQMNNLKPEDTAVYYCWMFTTDNYWGQGTQVTVSSGSENLYFQSHHHHHH
notes: Monovalent for TfR1; also called scFv-VHH
Kd [11]: 3.16 nM
koff [11]: 0.00539 s⁻¹
kon [11]: 1.7e+06 M⁻¹ s⁻¹

B21: KB_A19 (humanized variant of KB_A01) (VHH)
VHH: EVQLVESGGGLVQPGGSLRLSCAASGSIFGSKRMGWVRQAPGKGLEWVSAITYRGTTYYADSVKGRFTISRDNSKNTLYLQMNSLRAEDTAVYYCARFTTDNYWGQGTLVTVSS
notes: as for B15
binding result [7]: no binding (tested: 50 nM)

B22: KB_A01-scFv (scFv of 3D6 at the C-terminus of KB_A01) (bispecific antibody)
chain: QVQLQESGGGSVQAGGSLSLSCAASGSIFGSKRMGWFRQAPGEQRDVVATITYRGTTEYADSVKGRFTISRDNAKNTVYLQMNNLKPEDTAVYYCWMFTTDNYWGQGTQVTVSSGGGGSGGGGSGGGGSEVKLVESGGGLVKPGASLKLSCAASGFTFSNYGMSWVRQNSDKRLEWVASIRSGGGRTYYSDNVKGRFTISRENAKNTLYLQMSSLKSEDTALYYCVRYDHYSGSSDYWGQGTTVTVSGGGGSGGGGSGGGGSYVVMTQTPLTLSVTIGQPASISCKSSQSLLDSDGKTYLNWLLQRPGQSPKRLIYLVSKLDSGVPDRFTGSGSGTDFTLKISRIEAEDLGLYYCWQGTHFPRTFGGGTKLEIKGSENLYFQSHHHHHH
notes: Monovalent for TfR1; also called VHH-scFv
Kd [11]: 3.44 nM
koff [11]: 0.0075 s⁻¹
kon [11]: 2.18e+06 M⁻¹ s⁻¹
